Results taken from paper PMC11844185 (Journal of Translational Medicine, 2025).

B1: SWA9 (antibody, V domains shown)
VH: QMQLVQSGPEVKKPGTSVKVSCKASGFTFTNSAMQWVRQARGQRLEWVGWIVVASGNANSARRFHDRVTITSDMSTSTAYLELSSLRSEDTAVYYCALNHCSNTTCLDGFDIWGQGTMVSVSS
VL: EIVLTQSPVTLSLSPGERATLSCRASQSVRNSLLAWYQQKPGQAPRLLIYAASSRATGIPDRFSGSGSGTDFTLTISRLEPEDFVVYYCQQHGSSPPWTFGQGTKVEFK
B2: SWC11 (antibody, V domains shown)
VH: EVQLVESGGGLIQPGGSLRLSCAASEFIVSRNYMSWVRQAPGTGLEWVSVIYPGGSTFYADSVKGRFTISRDNSKNTLYLQMDSLRVEDTAVYYCARDYGDFYFDYWGQGTLVTVSS
VL: EIVMTQSPVSLSVSPGERATLSCRASQGVASNLAWYQQKAGQAPRLLIYGASTRATGIPARFSGSGSGTEFTLTISTLQSEDSAVYYCQQYNDRPRTFGQGTKLEIK
B3: 2YYQH9 (antibody, V domains shown)
VH: EVQLVESGGGLIQPGGSLRLSCAASGVTVIRNYMTWVRQAPGKGLEWVSVIYPGGTTYYADSVKGRFTISRDSSKNTLYLQMNSLRAEDAAVYFCARAYGDYYFDLWGQGTLLTVSS
VL: EMVMTQSPASLSLSPGERATLSCRASQGVDSSYLAWYQQKPGQAPRLLMYGASSRATGIPDRFSGSGYGTDFTLTISRVEPEDFAVYYCQVAFTFGQGTKVEIK

target: T1, SARS-CoV-2 prototype RBD-His tag protein (Severe acute respiratory syndrome …, UniProt P0DTC2); experiment: cell-based or functional assay

Row | Binder | neutralisation of SARS-CoV-2 prototype pseudovirus, IC50
1 | B1 | < 0.1 µg/mL
2 | B2 | < 0.1 µg/mL
3 | B3 | < 0.1 µg/mL

target: T1, SARS-CoV-2 prototype RBD-His tag protein; experiment: SPR

Row | Binder | Kd
4 | B1 | 345 pM
5 | B2 | 627 pM
6 | B3 | 428 pM
